Reference: PMC11470950

Molecular target: T1, RVFV nucleoprotein (N) (Rift Valley fever virus, UniProt D3K5I7 1-245)
T1 sequence: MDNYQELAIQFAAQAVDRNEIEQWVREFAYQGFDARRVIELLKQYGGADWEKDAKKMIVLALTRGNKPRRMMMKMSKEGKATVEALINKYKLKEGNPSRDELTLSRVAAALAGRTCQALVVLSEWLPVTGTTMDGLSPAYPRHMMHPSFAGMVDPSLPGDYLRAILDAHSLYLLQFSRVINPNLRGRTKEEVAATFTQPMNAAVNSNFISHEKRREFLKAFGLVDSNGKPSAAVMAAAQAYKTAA
Assay: fluorescence bead binding assay

Row | Binder | Kd [nM]
1 | CTCCAGCGTAAACTACTGAAGACTGTGCCGGAAAGATC (ssDNA) [RV-2 (RVF 2)] | 15.4
2 | AGATGTCCTGCGTCGAGACACTTCTGCATTACTACGTTGG (ssDNA) [RV-3 (RVF 3)] | 18.6
3 | CAGAAAAAGTGCCGACCGAACGATGTGTAAGCGCTATGAGA (ssDNA) [RV-5] | 41
